Experiments:
[1] = test system: human A549 tumor cells (non-small cell lung cancer); experiment: A549 NSCLC xenograft tumor growth, REGN421 with cisplatin (Example 2); format: in vivo, mouse; settings: REGN421 2 mg/kg sc (6 mg/kg total dose)
Description: The effect of REGN421 in combination with cisplatin on tumor growth was evaluated on tumors implanted in humanized Dll4 SCID mice, as described above. Each mouse was implanted subcutaneously (sc) with 5×10^6 human A549 tumor cells (non-small cell lung cancer or “NSCLC”). After the tumors were established in the mice (tumor size of 100-150 mm^3, approximately 29 days after implantation), tumors were measured, randomized and treated with hFc, REGN421, cisplatin or combination of REGN421 and cisplatin. A total of 36 mice were divided into 6 groups (n=6 per cohort). The first group was treated sc with hFc at 2 mg/kg; the second group was treated sc with REGN421 at 2 mg/kg; the third and fourth groups were treated ip with cisplatin at 2.5 and 4.5 mg/kg, respectively; the fifth group was treated sc with REGN421 at 2 mg/kg and ip with cisplatin at 2.5 mg/kg; and the sixth group was treated sc with REGN421 at 2 mg/kg and ip with cisplatin at 4.5 mg/kg. REGN421 was administered every 3-4 days starting on day 29 and mice received three doses total. Cisplatin was administered every 24 hours starting on day 29 and mice received two doses total.
To assess the effects of REGN421 and cisplatin as single agents or in combination we measured tumor size (volume), beginning three days before the initial REGN421 treatment, on the day of each agent treatment (days 29, 30, 33, 36) and thereafter every 3-4 days until tumors reached ˜600 mm^3 in size. In vivo tumor size was calculated using the formula (length×width^2)/2.

[2] = test system: human VM-Cub1 tumor cells (bladder carcinoma cells); experiment: VM-Cub1 bladder carcinoma xenograft tumor growth, REGN421 with cisplatin (Example 1); format: in vivo, mouse; settings: for TGI: 3 doses, at day 32; for Euthanized: control cohort euthanized day 32; for TGD: time to 600 mm^3 vs control
Description: The effect of anti-Dll4 antibody (REGN421) in combination with cisplatin (platinol, cis-diamminedichloroplatinum) on tumor growth was evaluated on tumors implanted in Severe Combined Immunodeficiency (SCID) mice expressing a humanized Dll4 protein (humanized Dll4 SCID mice). The humanized Dll4 SCID mouse was made by replacing the entire extracellular domain of the mouse Dll4 gene with the corresponding extracellular region of the human Dll4 gene (7 kb) in embryonic stem (ES) cells. Homozygous hDll4 mice were generated and bred into SCID background.
Each mouse was implanted subcutaneously (sc) with 1×10^6 human VM-Cub1 tumor cells (bladder carcinoma cells) plus MATRIGEL™ (BD Biosciences, #354234). After the tumors were established in the mice (tumor size of 150-200 mm^3, approximately 14 days after implantation), tumors were measured, randomized and treated with hFc, REGN421, cisplatin, or combination of REGN421 and cisplatin. A total of 45 mice were divided into nine groups (n=5 per cohort). The first group was treated subcutaneously (sc) with hFc at 2 mg/kg; the second and third groups were treated sc with REGN421 at 0.5 and 2 mg/kg, respectively; the fourth and fifth groups were treated intraperitoneally (ip) with cisplatin at 0.5 and 2 mg/kg, respectively; the sixth group was treated sc with REGN421 at 0.5 mg/kg and ip with cisplatin at 0.5 mg/kg; the seventh group was treated sc with REGN421 at 0.5 mg/kg and ip with cisplatin at 2 mg/kg; the eighth group was treated sc with REGN421 at 2 mg/kg and ip with cisplatin at 0.5 mg/kg; and the ninth group was treated sc with REGN421 at 2 mg/kg and ip with cisplatin at 2 mg/kg. REGN421 was administered every 3-4 days starting on day 14 and mice received three doses total. Cisplatin was administered every 24 hours starting on day 14; mice received four doses total.
To assess the effects of REGN421 and cisplatin as single agents or in combination treatments, the changes in tumor size were recorded. Tumor growth was measured three days before the initial REGN421 treatment, on the day of each REGN421 treatment (days 14, 17 and 21) and thereafter every 3-4 days until tumors reached ˜600 mm^3 in size. In vivo tumor size was calculated using the formula (length×width^2)/2 (FIG. 1 and Table 1).
Tumor Growth Inhibition, TGI, was determined by calculating the difference in tumor size for treated (T) versus vehicle control (C) tumor at the day the control cohort was euthanized (i.e., at day 32); TGI=[1−(Tfinal−Tinitial)/(Cfinal−Cinitial)]×100.
Tumor growth delay, TGD, was assessed as the difference in days between treated (T) versus control (C) tumors when each cohort reached a specified tumor size. The predetermined tumor size for this experiment was 600 mm^3.

[3] = Phase I pharmacokinetics of REGN421, single 30-min IV infusion, ELISA (Example 8); format: in vivo, human; settings: mean
Description: REGN421 is currently being studied in a first-in-human trial. The primary objective of the study is to determine the recommended dose of REGN421 for future efficacy trials. The secondary objectives are to characterize the drug safety profile, its pharmacokinetics, immunogenicity, and pharmacodynamics, as well as preliminary evidence of efficacy. In this study, anti-hDll4 antibody REGN 421 is administered intravenously every 3 weeks to patients whose cancer has progressed on conventional therapy. The study design follows standard methodology for dose escalation and definition of dose-limiting toxicity. To date, 7 patients have been treated at 0.25 mg/kg/dose every three weeks, and 6 patients have been treated at 0.50 mg/kg/dose every three weeks. For the pharmacokinetic study, blood samples were taken at pre-dose, 0 hour, and post-dose 1, 2, 4 and 8 hours on Day 1, followed by Days 2, 3, 4, 8 and 15 of Cycle 1; and pre-dose, 0 hour on Day 1 of Cycles≧2, and post-treatment follow-up on Days 15, 30 and 60. Plasma/serum levels of REGN421 in the samples are measured by ELISA with an upper limit of quantification of 2.5 μg/mL and a lower limit of quantification of 0.039 μg/mL in the undiluted serum sample. The study is ongoing with the intent to administer higher doses, defined in the protocol as 1, 2, 4, and 7 mg/kg/dose.
The currently available data showing plasma pharmacokinetic parameters following single 30-min. Cmax: Maximum serum concentration of the drug; Tlast: Time to the last quantifiable concentration of the drug; Clast: Last quantifiable concentration of the drug; AUClast: Area under curve up to the last concentration of the drug; AUC: Total area under the curve (i.e., drug exposure); t1/2Z: Terminal half life; Vss: Volume of distribution at steady state; CL: Drug clearance rate. Values are: mean, (CV %), and [range] (a: median [range]).

B1: REGN421: anti-hDll4 antibody comprising HCVR/LCVR combination of SEQ ID NO:116/118 (antibody, V domains shown)
VH: QVQLVESGGGVVQPGRSLRLSCAASGFTFSSYGMHWVRQAPGKGLEWVSFLWYDGTNKNYVESVKGRFTISRDNSKNMLYLEMNSLRAEDTAVYYCARDHDFRSGYEGWFDPWGQGTLVTVSS
VL: EIVLTQSPATLSLSPGERATLSCRASQSVSSYLAWYQQKPGQAPRLLIYDASNRATGIPARFSGSGSGTDFTLTISSLEPEDFAVYYCQHRSNWPPTFGGGTKVEIK
Which results are given for B1?
TGD [1]: 8 days; TGI ([2]; REGN421 0.5 mg/kg/dose sc): −13.7%; Euthanized ([2]; REGN421 0.5 mg/kg/dose sc): 32 days; TGD ([2]; REGN421 0.5 mg/kg/dose sc): 0 days; TGI ([2]; REGN421 2 mg/kg/dose sc): 83.1%; Euthanized ([2]; REGN421 2 mg/kg/dose sc): 44 days; TGD ([2]; REGN421 2 mg/kg/dose sc): 12 days; AUC ([3]; 0.25 mg/kg IV, n = 7 patients): 489 µg·h/mL; AUClast ([3]; 0.25 mg/kg IV, n = 7 patients): 452 µg·h/mL; AUC ([3]; 0.5 mg/kg IV, n = 2 patients): 963 µg·h/mL; AUClast ([3]; 0.5 mg/kg IV, n = 2 patients): 759 µg·h/mL

From patent publication US8840886B2, “Method of treating cancer with DLL4 antagonist and chemotherapeutic agent” (Regeneron Pharmaceuticals, Inc., priority 2009, dated 2014)
